Biological target: the molecule itself
Experiment: crystal structure

B1: 3-ketoacyl-(acyl-carrier-protein) reductase (FabG) from Rickettsia prowazekii strain Madrid E (enzyme)
chain: MIDLTGKTSLITGASSGIGSAIARLLHKLGSKVIISGSNEEKLKSLGNALKDNYTIEVCNLANKEECSNLISKTSNLDILVCNAGITSDTLAIRMKDQDFDKVIDINLKANFILNREAIKKMIQKRYGRIINISSIVGIAGNPGQANYCASKAGLIGMTKSLSYEVATRGITVNAVAPGFIKSDMTDKLNEKQREAIVQKIPLGTYGIPEDVAYAVAFLASNNASYITGQTLHVNGGMLMV
notes: also called 3-ketoacyl-(ACP) reductase; 3-oxoacyl-(acyl-carrier-protein) reductase; not shown: His6, N-terminal, kept
Question: With B1 as the protein, how does the “stoichiometry N” value read?
Answer: The value was 4.
